Reference: publication PMC8790125, “Molecular Mechanism of SARS-CoVs Orf6 Targeting the Rae1–Nup98 Complex to Compete With mRNA Nuclear Export”

Molecular target: Rae1;Nup98 GLEBS (human;human, UniProt P78406;P52948-3 1-368;157-213, |)
Test: ITC
Conditions: protein: recombinant;recombinant; tags: His tag on the complex (HisTrap); copies: 1;1

Sequence of Rae1;Nup98 GLEBS (P78406 whole entry, chain 1 of 2): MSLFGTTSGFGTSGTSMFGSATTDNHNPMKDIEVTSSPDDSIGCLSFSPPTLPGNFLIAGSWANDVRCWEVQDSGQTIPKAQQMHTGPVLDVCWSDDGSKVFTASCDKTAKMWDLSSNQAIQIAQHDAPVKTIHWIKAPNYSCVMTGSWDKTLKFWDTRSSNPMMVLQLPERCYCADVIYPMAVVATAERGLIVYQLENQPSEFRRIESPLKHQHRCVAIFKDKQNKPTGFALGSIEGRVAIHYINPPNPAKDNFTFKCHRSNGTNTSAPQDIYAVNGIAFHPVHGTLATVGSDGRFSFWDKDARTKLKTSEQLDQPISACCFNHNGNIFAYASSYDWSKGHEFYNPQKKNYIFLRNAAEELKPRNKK
Sequence of Rae1;Nup98 GLEBS (P52948 157-213, chain 2 of 2): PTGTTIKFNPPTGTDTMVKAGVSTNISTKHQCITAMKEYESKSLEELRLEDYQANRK

Binder: UUUUUUUUUUUUUU (ssRNA) [14-mer poly(U) ssRNA]
- binding result: binds
